Test results published in patent US20250388682A1 (EPIBIOLOGICS, published 2025).
Blank lines part the entries; values can stand above or below the binder they belong to.

Biological target: Epidermal Growth Factor Receptor (EGFR) (human, UniProt P00533 25-1210)
Experiment: cell-based or functional assay

EGFR cell surface removal (percent; flow cytometry with a labeled anti-EGFR antibody after 24 hours at 50 nM): 75.1%
B1: EPI1022-1 (Duligotuzumab/Mav2) (bispecific antibody, human IgG1, kappa)
heavy: not shown
light: DIQMTQSPSSLSASVGDRVTITCRASQNIATDVAWYQQKPGKAPKLLIYSASFLYSGVPSRFSGSGSGTDFTLTISSLQPEDFATYYCQQSEPEPYTFGQGTKVEIKRTVAAPSVFIFPPSDEQLKSGTASVVCLLNNFYPREAKVQWKVDNALQSGNSQESVTEQDSKDSTYSLSSTLTLSKADYEKHKVYACEVTHQGLSSPVTKSFNRGEC
chain: not shown

EGFR cell surface removal (percent; flow cytometry with a labeled anti-EGFR antibody after 24 hours at 50 nM): 78.6%
B2: EPI1527-1 (Duligotuzumab/EgB4) (bispecific antibody, human IgG1, kappa)
heavy: not shown
light: B1 light
chain: not shown

EGFR cell surface removal (percent; flow cytometry with a labeled anti-EGFR antibody after 24 hours at 50 nM): 76.4%
B3: EPI873 (hu15G11v5/Mav2) (bispecific antibody, human IgG1, kappa)
heavy: not shown
light: DIQMTQSPSSLSASVGDRVTITCRASDNLYSNLAWYQQKPGKSPKLLVYDATNLADGVPSRFSGSGSGTDYTLTISSLQPEDFATYYCQHFWGTPLTFGQGTKVEIKRTVAAPSVFIFPPSDEQLKSGTASVVCLLNNFYPREAKVQWKVDNALQSGNSQESVTEQDSKDSTYSLSSTLTLSKADYEKHKVYACEVTHQGLSSPVTKSFNRGEC
chain: not shown

EGFR cell surface removal (percent; flow cytometry with a labeled anti-EGFR antibody after 24 hours at 50 nM): 69.2%
B4: EPI1556-1 (hu15G11v5/EgB4) (bispecific antibody, human IgG1, kappa)
heavy: not shown
light: B3 light
chain: not shown
